The assay concerns the target T1, rat contactin (clone F8; p140 of GH3 cells) (rat, UniProt Q63198 21-1001, GPI-anchored).
T1 construct: whole, on cells; On transfected COS7 cells, on GH3 cells, in solubilized GH3 membranes or in rat brain membranes, as the entry says; also called rat homologue of contactin; F3/F11
T1 sequence (looked up): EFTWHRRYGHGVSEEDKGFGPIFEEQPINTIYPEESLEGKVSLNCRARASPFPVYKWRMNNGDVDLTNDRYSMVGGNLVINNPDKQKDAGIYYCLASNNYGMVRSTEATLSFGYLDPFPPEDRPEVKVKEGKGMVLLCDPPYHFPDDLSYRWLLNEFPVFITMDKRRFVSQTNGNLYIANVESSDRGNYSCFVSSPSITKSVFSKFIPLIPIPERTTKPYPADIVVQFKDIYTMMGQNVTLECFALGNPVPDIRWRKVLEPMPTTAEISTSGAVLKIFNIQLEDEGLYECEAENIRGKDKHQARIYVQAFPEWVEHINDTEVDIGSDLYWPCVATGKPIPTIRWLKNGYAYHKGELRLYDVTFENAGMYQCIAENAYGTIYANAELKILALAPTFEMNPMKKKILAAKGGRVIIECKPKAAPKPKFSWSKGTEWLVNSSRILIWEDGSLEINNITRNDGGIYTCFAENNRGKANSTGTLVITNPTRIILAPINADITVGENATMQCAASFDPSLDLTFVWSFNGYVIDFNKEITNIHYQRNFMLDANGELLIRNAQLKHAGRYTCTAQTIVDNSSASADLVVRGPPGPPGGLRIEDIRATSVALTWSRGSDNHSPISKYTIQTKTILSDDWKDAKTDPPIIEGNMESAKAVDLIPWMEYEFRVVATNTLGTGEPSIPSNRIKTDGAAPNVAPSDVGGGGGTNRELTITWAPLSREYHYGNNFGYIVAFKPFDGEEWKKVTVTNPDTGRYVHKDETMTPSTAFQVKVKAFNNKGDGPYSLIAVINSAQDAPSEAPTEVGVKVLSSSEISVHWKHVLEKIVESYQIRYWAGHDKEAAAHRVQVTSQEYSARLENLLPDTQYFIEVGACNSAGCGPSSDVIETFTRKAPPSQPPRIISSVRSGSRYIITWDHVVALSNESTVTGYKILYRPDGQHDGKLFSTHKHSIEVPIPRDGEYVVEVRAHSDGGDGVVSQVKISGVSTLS
Put plainly: cross-linking (DTSSP) on GH3 cells, protein A precipitation, SDS-PAGE. The method, then:
Cells were incubated for four hours with medium containing, the different Fc-fusion proteins. Following three washes with cold PBS/Ca (1 mM CaCl₂ in PBS), the cells were incubated for additional 30 minutes with PBS/Ca containing 1 mM DTSSP (3,3′-Dithiobis[sulfosuccinimidyl--propionate], Pierce, Rockford, Ill.). Free cross-linker was removed by additional PBS wash followed by quenching with 100 mM glycine in TBS for 10 minutes at 4° C. Cell lysates were made in SBN lysis buffer (Peles et al., 1991, EMBO J., 10:2077-2086), and Sepharose-protein A was added to the cleared lysates. Following two hours incubation at 4° C., the beads were washed three times with HNTG buffer (Peles et al., 1991, EMBO J., 10:2077-2086), and the bound proteins were eluted by adding SDS PAGE sample buffer containing 5% β-mercaptoethanol and further incubation for 10 minutes at 95° C.
To characterize ligands for RPTPβ, a reversible cross-linker ([…]) was used, and proteins were sought that specifically bound to βC-Fc. Two of the cell lines that bound βC-Fc (IMR32 and GH3), as well as COS7 cells as a control, were allowed to react with the fusion proteins containing the FNIII or the CAH domains followed by cross-linking and precipitation of the complexes. […] No reactivity was detected in control cells or in cells incubated with βF-Fc. […]

B1: βF-Fc (FNIII domain of RPTPβ fused to human IgG1-Fc) (Fc fusion)
chain: not shown
notes: domain: FNIII; also called the FNIII domain alone; fibronectin domain alone; not shown: human IgG1 Fc (vector pCNγ1)
Take B1: the binding result is “no binding”.

The values above are taken from patent US20030120051A1 (SUGEN, published 2003).
